According to patent US7963935B2, “Microprojection array having a beneficial agent containing coating” (Alza Corporation, priority 2001, dated 2011):
Structures can show the parent of a compound that is named as a salt.

What was measured:
[1] = Dry film/coating on titanium foil: inspection and redissolution/rehydration in water; type: physicochemical
Description: In order to test the ability of aqueous albumin solutions to form solid coatings on titanium microprojections, a coated microprojection array was prepared in the following manner. […] To aliquots of these solutions, fluorescein, a marker added for subsequent visualization of the dried coating, was added at a final concentration of 1 millimolar. A 1-microliter drop of this solution was spread on titanium foil having an area of about one centimeter square. The solution was allowed to dry at room temperature for about 1 hour.
A coated microprojection array was prepared in the following manner. […] To this suspension, fluorescein, a marker added for subsequent visualization, was added at a final concentration of 1 millimolar. A 1 microliter drop of this suspension was spread on titanium foil having an area of 1 square centimeter and allowed to dry at room temperature for about an hour.
To 50 microliters of this solution, 50 microliters of a 40 percent by weight aqueous solution of lidocaine HCl was added. A control solution containing no albumin was also prepared. 1-microliter drops of these solutions were spread on titanium foil having an area of approximately 1 square centimeter. The solutions were allowed to air dry at room temperature for about 1 hour.

[2] = hGH delivery studies with tip-coated microprojection arrays; plasma hGH by ELISA, compared with subcutaneous injection; type: in vivo, hairless guinea pigs; settings: for Cmax / tmax: plasma hGH
Description: An aqueous solution containing 20 wt % human growth hormone (20 wt % hGH), and 20 wt % sucrose was prepared. […] The tips of the microprojections were coated with this solution by passing the arrays over a rotating drum carrying the hGH/sucrose solution using the method and apparatus disclosed in U.S. Patent Application Ser. No. 60/276,762 filed Mar. 16, 2001. Four successive coatings were performed on each microprojection array at 4° C. The amount of protein coated on the arrays was evaluated by total protein assay. An average of 9.5±0.9 μg of hGH was coated per array. […] On the microprojection itself, the coating was found unevenly distributed. Most of the solid coating appeared to be located in caps centered on the geometric center of the faces of the coated area of the microprojections. […] The maximum measured thickness of the coating was about 4 μm while the average calculated thickness over the entire coated area was only about 1.7 μm. Overall, the coating presented good aerodynamics and good adhesion, consistent with minimum effect on penetration of the microprojections into the skin and minimal removal of the drug from the microprojection during penetration.
Some of the hGH tip-coated arrays were subsequently used for drug delivery studies in hairless guinea pigs. The application of the coated microprojection arrays was done using an impact applicator (total energy=0.4 Joules, delivered in less than 10 milliseconds) using a spring-driven impact applicator or the type disclosed in U.S. Patent Application Ser. No. 60/240,307 filed Oct. 13, 2000. The arrays were left on the skin after application for 5 seconds, 5 minutes, or 1 hour, in groups of three animals. Blood was collected at time intervals for plasma hGH determination by ELISA. […] On average, 5 μg of hGH was delivered in each animal, which accounts for approximately 50% of the coated dose. […] Finally, the 5 minute wearing time group had the smallest CV (30%), which is even smaller than that observed following subcutaneous injection (50%).

Molecule: CCN(CC)CC(=O)Nc1c(C)cccc1C [lidocaine HCl]
- nature of dried film (hygroscopicity, suitability for storage) ([1]; control solution without albumin): very hygroscopic film unsuitable for subsequent storage

Molecule: human growth hormone [hGH]
- hGH delivery versus wearing time ([2]; arrays left on skin 5 seconds, 5 minutes or 1 hour): the same at all wearing times
- amount of hGH delivered in each animal (average) ([2]; hGH/sucrose tip-coated microprojection array, impact applicator, hairless guinea pigs, all wearing times): 5 µg
- Cmax ([2]; microprojection administration): 13 ng/mL
- tmax ([2]; microprojection administration): 30 min
- hGH delivered as fraction of the coated dose ([2]; microprojection array, hairless guinea pigs): approximately 50%
- fraction of the coated dose delivered into the skin ([2]; microprojection array, assuming bioavailability similar to subcutaneous (65%)): about 80%
- bioavailability ([2]; subcutaneous administration): 65%
- Cmax ([2]; subcutaneous injection): 5 ng/mL
- tmax ([2]; subcutaneous injection): 60 min

Molecule: Cyclosporin A [CSA]
- release of drug particles from dry albumin coating following rehydration ([1]; CSA suspension in 20 wt% human albumin, dried on titanium foil, particles 1 to 25 micrometers): freed readily following rehydration
